Assay results published in paper PMC9018835, “Regulated interaction of ID2 with the anaphase-promoting complex links progression through mitosis with reactivation of cell-type-specific transcription” (Nature Communications, 2022).

Tests used:
[1] = biological target: core APC (endogenous, HeLa) (human (endogenous in HeLa)); test: cell-based or functional assay
[2] = biological target: T1, HA-CDH1, in vitro translated (UniProt Q9UM11 1-496); test: pull-down; GST-ID2, with or without prior in vitro phosphorylation by CDK1-Cyclin B, incubated with APC immunopurified through FLAG-APC3 from HeLa cells and activated by in vitro translated HA-CDC20 or CDH1; western blot (Fig. 3h); conditions: both partners purified
T1 construct: CDH1/FZR1, generated by PCR and cloned into pcDNA3; also called in vitro translated CDH1; source: in vitro translated
T1 sequence (Q9UM11 whole entry): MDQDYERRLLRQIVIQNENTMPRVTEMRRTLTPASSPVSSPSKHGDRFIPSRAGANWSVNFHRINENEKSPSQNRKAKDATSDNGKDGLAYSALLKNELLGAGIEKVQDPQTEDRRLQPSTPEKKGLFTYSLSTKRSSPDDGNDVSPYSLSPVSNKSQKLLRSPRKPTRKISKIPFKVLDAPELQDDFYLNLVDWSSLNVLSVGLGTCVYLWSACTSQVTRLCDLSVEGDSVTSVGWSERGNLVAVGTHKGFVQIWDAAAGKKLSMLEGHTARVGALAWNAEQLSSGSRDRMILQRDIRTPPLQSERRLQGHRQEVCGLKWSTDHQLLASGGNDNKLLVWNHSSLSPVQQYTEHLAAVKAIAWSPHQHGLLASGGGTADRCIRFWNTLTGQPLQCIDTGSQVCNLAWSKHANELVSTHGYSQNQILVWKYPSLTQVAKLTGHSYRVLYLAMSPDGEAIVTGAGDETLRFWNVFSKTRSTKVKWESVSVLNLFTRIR

half-life of ID2-S5D in transiently transfected HeLa cells treated with cycloheximide, against ID2 wild type [1] | binding result [2] | Binder
~5 fold |  | FLAG-ID2-S5D (natural protein, UniProt Q02363 1-134, looked up) MKAFDPVRSVRKNSLSDHSLGISRSKTPVDDPMSLLYNMNDCYSKLKELVPSIPQNKKVSKMEILQHVIDYILDLQIALDSHPTIVSLHHQRPGQNQASRTPLTTLNTDISILSLQASEFPSELMSNDSKALCG
 | binds | phospho-S5-GST-ID2 (natural protein, UniProt Q02363 1-134, looked up, phosphoserine at 5 (in vitro phosphorylation by Cyclin B-CDK1), also called CDK1 phosphorylated GST-ID2; source: E. coli BL21(DE3), GST fusion; phosphorylated in vitro by CDK1-Cyclin B) MKAFSPVRSVRKNSLSDHSLGISRSKTPVDDPMSLLYNMNDCYSKLKELVPSIPQNKKVSKMEILQHVIDYILDLQIALDSHPTIVSLHHQRPGQNQASRTPLTTLNTDISILSLQASEFPSELMSNDSKALCG
 | binds | GST-ID2 wild type (natural protein, UniProt Q02363 1-134, looked up, also called GST-ID2 WT; recombinant GST-ID2; source: E. coli BL21(DE3), purified GST fusion, immobilised on glutathione sepharose 4B) MKAFSPVRSVRKNSLSDHSLGISRSKTPVDDPMSLLYNMNDCYSKLKELVPSIPQNKKVSKMEILQHVIDYILDLQIALDSHPTIVSLHHQRPGQNQASRTPLTTLNTDISILSLQASEFPSELMSNDSKALCG
